Results: US20200385425A1

Molecular target: PDZ1/2 domain (Homo sapiens (Human)) (UniProt P78352)
Assay: SPR, Biacore 3000, PDZ1/2 amine-coupled on CM5 chip, peptide as analyte, 1:1 binding model

Sequence of PDZ1/2 domain (Homo sapiens (Human)) (P78352 65-246 limits assumed): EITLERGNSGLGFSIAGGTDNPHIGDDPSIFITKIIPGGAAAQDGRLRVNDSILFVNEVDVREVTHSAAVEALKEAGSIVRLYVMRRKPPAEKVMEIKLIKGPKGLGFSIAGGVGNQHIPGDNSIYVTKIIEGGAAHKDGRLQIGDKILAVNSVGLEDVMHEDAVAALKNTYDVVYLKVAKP

control chimeric peptide NA-1 gave a Kd of 75.3 nM.
